Assay results as given in patent publication US20190367606A1 (CENTRE FOR DRUG RESEARCH AND DEVELOPMENT, published 2019).

T1: human podocalyxin (human, UniProt O00592 23-558)
T1 construct: also called hPodo; hPodocalyxin
T1 sequence: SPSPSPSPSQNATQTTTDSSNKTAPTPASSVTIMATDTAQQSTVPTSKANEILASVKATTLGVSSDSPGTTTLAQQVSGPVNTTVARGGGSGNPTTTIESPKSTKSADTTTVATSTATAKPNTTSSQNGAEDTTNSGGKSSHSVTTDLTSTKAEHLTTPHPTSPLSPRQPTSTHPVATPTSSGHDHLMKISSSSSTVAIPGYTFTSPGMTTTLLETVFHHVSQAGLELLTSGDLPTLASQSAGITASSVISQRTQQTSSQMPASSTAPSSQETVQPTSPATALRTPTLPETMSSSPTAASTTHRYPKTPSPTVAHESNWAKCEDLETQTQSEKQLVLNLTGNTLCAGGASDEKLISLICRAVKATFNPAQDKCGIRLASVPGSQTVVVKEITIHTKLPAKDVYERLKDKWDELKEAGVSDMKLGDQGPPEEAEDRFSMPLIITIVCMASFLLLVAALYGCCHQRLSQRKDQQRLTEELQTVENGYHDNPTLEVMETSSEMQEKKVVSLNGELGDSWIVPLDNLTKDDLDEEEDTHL

B1: huPodo 83 1:1 (humanized anti-podocalyxin antibody 83, version 1) (antibody, V domains shown)
VH: EVQLVESGGGLVQPGGSLRLSCAASGIDLSSYAMGWVRQAPGKGLEWVSFIYASGSIFYASWAKGRFTISRDNSKNTLYLQMNSLRAEDTAVYYCARAGYYFGGNYDLNLWGQGTLVTVSS
VL: DIQMTQSPSSLSASVGDRVTITCQASQSISNYLAWYQQKPGKVPKLLIYRASTLASGVPSRFSGSGSGTDFTLTISSLQPEDVATYYCQQGYVSNNLDNIFGGGTEVVVK
notes: Cloned into pTT5 plasmids with human IgG heavy chain and human Ig kappa constant regions
B2: huPodo 83 2:1 (humanized anti-podocalyxin antibody 83, version 2) (antibody, V domains shown)
VH: EVQLVESGGGLVQPGGSLRLSCAASGIDLSSYAMGWVRQAPGKGLEWVSFIYASGSIFYASWAKGRFTISRDNSNTLYLQMNSLRAEDTAVYYCARAGYYFGGNYDLNLWGQGTLVTVSS
VL: B1 VL
notes: as for B1
B3: Rabbit Podo 83 (Parental rabbit antibody) (antibody, V domains shown)
VH: QSLAESGGRLVTPGTPLTLTCTASGIDLSSYAMGWVRQAPGKGLEYIGFIYASGSIFYASWAKGRFTISKTSSTTVDLKMTSLTTEDTATYFCARAGYYFGGNYDLNLWGQGTLVTVSS
VL: DIVLTQTPASVEVAVGGTVTIKCQASQSISNYLAWYQRKPGQPPRLLIYRASTLASGVSSRFKGSGSGTQFTLTISGVECADAATYYCQQGYVSNNLDNIFGGGTEVVVK
notes: Rabbit constant regions; also called Rb Podo 83 (Rb Constant Region); rabbit Podo-83 (Ab-1)
B4: Rb VH, Vk 1:1 (Podo 83 rabbit VH, human CH1-CH3, human Ck, and humanized Vk) (antibody, V domains shown)
VH: B3 VH
VL: B1 VL
notes: Human CH1-CH3 and human Ck
B5: mouse anti-podocalyxin antibody 3G2 (Ab-2) (antibody, V domains shown)
VH: EVQLQQSGPELVKPGASVKMSCKASGYTFTSYVMHWVKQKPGQGLEWIGYIHPYNDGTNYNEKFKGKATLTSDKSSNTAYMELSSLTSEDSAVYYCARSWDWYFDVWGAGTTVTVSS
VL: QIVLTQSPAIMSASPGEKVTMTCSANSNVRYIHWHQQKSGTSPKRWIYDTSKLSSGVPARFSGSGSGTSYSLTISNMEAEDAATYYCQQWISNPLTFGAGTKLELK
notes: also called 3G2.2; Podo-3G2.2

The molecules below were run against T1, human podocalyxin (assay: flow cytometry titration on 293-6E cells (endogenous podocalyxin), 48 hours at 4 C).
Procedure: (§1) The affinities of huPodo 83 1:1 and huPodo 83 2:1 antibodies were determined against endogenously expressed podocalyxin on 293 HEK cells. 293-6E cells were seeded in 96-well v bottom plates at 100,000 cells/well. The cells were pelleted at 400 g for 3 min and the supernatant was discarded. The cells were placed on ice and antibody 1:3 titrations were prepared using ice cold medium. The cells were resuspended in the prepared antibody titrations at 25 μl/well and incubated at 4° C. for either 24 or 48 hours. 200 μl 1% FBS/PGS (FACS buffer) was added to each well. The cells were pelleted at 400 g for 3 min and supernatant removed. The wash was repeated 2 more times. The cells were resuspended in goat anti-human IgGFc-A647 (2 μg/ml)+2.5 μg/ml 7AAD and incubated on ice for 30 min. The cells were washed as above and resuspended in 50 μl FACS buffer. The cells were analyzed by flow cytometry using the HTFC™ Screening System (IntelliCyt Corporation) (3 sec sip, 1.5 sec up) and the C6 cytometer (Becton Dickenson).

Row | IC50 [µg/mL] | Molecule
1 | 0.0355 | B1
2 | 0.052 | B2

These molecules were tested against T1, human podocalyxin (assay: flow cytometry, supernatant 2:15 (so in the source), MDA-MB-231 cells).
Procedure: (§2) The following antibodies were transiently transfected in 293HEK cells, transfected cells were incubated for 96 hours, antibody containing supernatant was then serially titrated in FACS sample buffer. The following supernatants were used as test samples:
(§3) MDA transient transfectants were established as essentially described above in Example 1. MDA transient transfectants and MDA-MB-231 cells were seeded in 96-well v bottom plates at 75,000 cells/well. Cells were pelleted by centrifugation at 400 g for 3 min. Supernatant was removed. The cell pellets were resuspended in 20 μl of the antibody or control supernatants. The plate was incubated on ice for 1 hour.
(§4) The cells were washed by adding 200 μl FACS buffer to dilute unbound antibody. The plate was centrifuged at 400 g for 3 min to pellet cells. The supernatant was removed and repeated. The cell pellets were resuspended in 25 μl of either goat anti-Hu IgG Fc-Alexa647, goat anti-Mouse IgG Fc-Alexa647, or goat anti-rabbit IgG0Fc-A647 (2 μg/ml) and 7A.A.D (2.5 μg/ml). The plates were incubated on ice for 0.5 hours. The wash procedure was again repeated 2×. The cell pellets were finally resuspended in 75 μl FACS buffer and read on the HTFC™ Screening System (IntelliCyt Corporation) (3 sec sip, 1.5 up time) and analyzed on the HyperView® software (IntelliCyt Corporation).

Row | flow cytometry fluorescence (name not given) | Molecule
3 | 53700 | B3
4 | 91500 | B1
5 | 94800 | B4
6 | 67200 | B2

What follows are molecules tested against T1, human podocalyxin (assay: FACS, isotype control, hPodo/MDA (MDA-MB-231 cells transfected with human Podocalyxin cDNA)).

Row | FACS signal (name not given) | Molecule
7 | 544 | hlgG1 (antibody)
8 | 533 | hlgG2 (antibody)

The molecules below were run against T1, human podocalyxin (assay: flow cytometry, supernatant 1:125, hPodo/MDA-MB-231 transient transfectants).
Procedure: as §2, §3, §4

Row | flow cytometry fluorescence (name not given) | Molecule
9 | 24100 | B3
10 | 61600 | B1
11 | 74500 | B4
12 | 37700 | B2

What follows are molecules tested against T1, human podocalyxin (assay: flow cytometry, supernatant 1:5, hPodo/MDA-MB-231 transient transfectants).
Procedure: as §2, §3, §4

Row | flow cytometry fluorescence (name not given) | Molecule
13 | 139000 | B3
14 | 128000 | B1
15 | 124000 | B4
16 | 108000 | B2

Each molecule was assayed against T1, human podocalyxin (assay: flow cytometry titration on 293-6E cells (endogenous podocalyxin), 24 hours at 4 C).
Procedure: as §1

Row | IC50 [µg/mL] | Molecule
17 | 0.0331 | B1
18 | 0.0519 | B2

What follows are molecules tested against T1, human podocalyxin (assay: flow cytometry, supernatant 2:15 (so in the source), hPodo/MDA-MB-231 transient transfectants).
Procedure: as §2, §3, §4

Row | flow cytometry fluorescence (name not given) | Molecule
19 | 89700 | B3
20 | 157000 | B1
21 | 76400 | B4
22 | 79400 | B2

These molecules were tested against T1, human podocalyxin (assay: flow cytometry, supernatant Neat, MDA-MB-231 cells).
Procedure: as §2, §3, §4

Row | flow cytometry fluorescence (name not given) | Molecule
23 | 179000 | B3
24 | 125000 | B1
25 | 130000 | B4
26 | 123000 | B2

Each molecule was assayed against T1, human podocalyxin (assay: kinetic exclusion assay (KinExA 3200), MDA-MB-231 cells).
Procedure: The concentration dependence of free anti-podocalyxin antibody as a function of MDA-MB231 cell number was determined using a KinExA 3200 instrument (Sapidyne Instruments). Briefly, MDA-MB-231 cells, which express endogenous podocalyxin, were titrated 1:2 from 10×10⁶ cells/mL down 12 steps, and incubated with a fixed concentration of anti-podocalyxin antibodies. MDA-MB231 cells and cell bound antibodies were then isolated by centrifugation. Supernatant containing free, unbound antibody was then transferred to a new tube. The supernatant containing free unbound antibody was passed over the column containing PMMA beads coated with a goat anti-IgG-Fc capture antibody. The amount of free antibody captured on the PMMA beads was then measured using a goat anti-IgG-Fc-A647. This process was repeated for every cell concentration. For each sample assayed a new column of PMMA beads with the goat anti-IgG-Fc capture antibody was packed. The concentration of free antibody over the entire 12 step dilution series was then used to determine the antibody Kd's using the standard Kd template in the KineExA Pro Software (Sapidyne Instruments).

Row | Kd [nM] | Molecule
27 | 0.26 | B1
28 | 3.34 | B5

What follows are molecules tested against T1, human podocalyxin (assay: flow cytometry, supernatant 1:125, MDA-MB-231 cells).
Procedure: as §2, §3, §4

Row | flow cytometry fluorescence (name not given) | Molecule
29 | 15500 | B3
30 | 39400 | B1
31 | 47700 | B4
32 | 22300 | B2

What follows are molecules tested against T1, human podocalyxin (assay: flow cytometry, supernatant Neat, hPodo/MDA-MB-231 transient transfectants).
Procedure: as §2, §3, §4

Row | flow cytometry fluorescence (name not given) | Molecule
33 | 90800 | B3
34 | 124000 | B1
35 | 137000 | B4
36 | 139000 | B2

The molecules below were run against T1, human podocalyxin (assay: flow cytometry, supernatant 1:5, MDA-MB-231 cells).
Procedure: as §2, §3, §4

Row | flow cytometry fluorescence (name not given) | Molecule
37 | 129000 | B3
38 | 112000 | B1
39 | 115000 | B4
40 | 105000 | B2
